Experimental findings from patent US20020123082A1 are described below.

For this assay, the target named is human p27, wild type (human) (UniProt P46527). Put plainly: cell-based or functional assay.
Chain of human p27, wild type (human) (P46527 whole entry): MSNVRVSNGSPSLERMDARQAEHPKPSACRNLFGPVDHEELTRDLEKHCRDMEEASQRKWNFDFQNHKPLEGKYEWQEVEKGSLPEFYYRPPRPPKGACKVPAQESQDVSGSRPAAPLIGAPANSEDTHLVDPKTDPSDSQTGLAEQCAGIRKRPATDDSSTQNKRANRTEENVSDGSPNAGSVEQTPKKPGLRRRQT

In turn, “(ΔF)Skp2, F-box deleted Skp2 mutant lacking residues 113-152 (from UniProt Q13309 1-112; Q13309 141-424)” yielded a p27 half-life, pulse chase analysis in NIH-3T3 cells of 3 h.
